Experimental data published in paper PMC9352680, “A comprehensive thermodynamic model for RNA binding by the Saccharomyces cerevisiae Pumilio protein PUF4”.
Substitutions are numbered along the chain they refer to. In names and notes the source's numbering stands.

T1: PUF4 RNA-binding domain (Saccharomyces cerevisiae, UniProt P25339 537-888)
T1 sequence: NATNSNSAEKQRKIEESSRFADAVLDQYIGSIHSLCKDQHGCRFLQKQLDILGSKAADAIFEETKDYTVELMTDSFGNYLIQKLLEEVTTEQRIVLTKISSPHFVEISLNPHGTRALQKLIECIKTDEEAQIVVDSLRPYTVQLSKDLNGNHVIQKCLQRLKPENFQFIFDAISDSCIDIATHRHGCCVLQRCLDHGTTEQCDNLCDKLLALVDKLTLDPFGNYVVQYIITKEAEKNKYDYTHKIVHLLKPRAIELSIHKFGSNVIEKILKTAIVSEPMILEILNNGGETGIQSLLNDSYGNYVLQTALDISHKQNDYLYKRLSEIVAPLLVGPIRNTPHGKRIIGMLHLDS

B1: Ic_S4_P5E.1_K5.1_C5.1_H5.1_A5.1_[T5G]_[A7C]_F5.1_[T8G]_[A10G]_T5.1 (ssRNA)
RNA: UUUGACAACUGAUCGUUCUUUCUUGUAGUCGUGUUCUUUCUCGAUCAGUUGUCUUU
B2: Ic_S4_P5E.1_K5.1_C5.1_H5.1_A5.1_[T5A]_[T6C]_[A7T]_F5.1_[T8C]_[T9A]_[A10T]_T5.1 (ssRNA)
RNA: B1 RNA with G28A, U29C, C30U, G31C, U32A, G33U
B3: Ic_S4_P5E.1_K5.1_C5.1_H5.1_A5.1_[T6A]_[A7C]_F5.1_[T8A]_[T9C]_[A10T]_T5.1 (ssRNA)
RNA: B1 RNA with G28U, U29A, G31A, U32C, G33U
B4: Ic_S4_P5E.1_K5.1_C5.1_H5.1_A5.1_[T5C]_[T6C]_F5.1_[T9A]_[A10C]_T5.1 (ssRNA)
RNA: B1 RNA with G28C, U29C, C30A, G31U, U32A, G33C
B5: Ic_S4_P5E.1_K5.1_C5.1_H5.1_A5.1_[A7T]_F5.1_[T8C]_[T9A]_T5.1 (ssRNA)
RNA: B1 RNA with G28U, C30U, G31C, U32A, G33A
B6: Ic_S4_P5E.1_K5.1_C5.1_H5.1_A5.1_[T5A]_[T6A]_[A7C]_F5.1_[T9A]_[A10T]_T5.1 (ssRNA)
RNA: B1 RNA with G28A, U29A, G31U, U32A, G33U
B7: Ic_S4_P5E.1_K5.1_C5.1_H5.1_A5.1_[T5C]_[A7G]_F5.1_[T8C]_[T9G]_[A10C]_T5.1 (ssRNA)
RNA: B1 RNA with G28C, C30G, G31C, U32G, G33C
B8: Ic_S4_P5E.1_K5.1_C5.1_H5.1_A5.1_[T5A]_[A7C]_F5.1_[T8C]_[T9G]_[A10G]_T5.1 (ssRNA)
RNA: B1 RNA with G28A, G31C, U32G
B9: Ic_S4_P5E.1_K5.1_C5.1_H5.1_A5.1_[A7T]_F5.1_[T8A]_[A10G]_T5.1 (ssRNA)
RNA: B1 RNA with G28U, C30U, G31A
B10: Ic_S4_P5E.1_K5.1_C5.1_H5.1_A5.1_[T5C]_[T6C]_[A7C]_F5.1_[T9A]_[A10G]_T5.1 (ssRNA)
RNA: B1 RNA with G28C, U29C, G31U, U32A
B11: Ic_S4_P5E.1_K5.1_C5.1_H5.1_A5.1_[T5A]_[T6C]_[A7C]_F5.1_[T8C]_[T9A]_[A10T]_T5.1 (ssRNA)
RNA: B1 RNA with G28A, U29C, G31C, U32A, G33U
B12: Ic_S4_P5E.1_K5.1_C5.1_H5.1_A5.1_[T5A]_[T6A]_[A7C]_F5.1_[T8G]_[T9C]_[A10C]_T5.1 (ssRNA)
RNA: B1 RNA with G28A, U29A, U32C, G33C
B13: Ic_S4_P5E.1_K5.1_C5.1_H5.1_A5.1_[T5C]_[T6A]_[A7C]_F5.1_[T8A]_[T9A]_T5.1 (ssRNA)
RNA: B1 RNA with G28C, U29A, G31A, U32A, G33A
B14: Ic_S4_P5E.1_K5.1_C5.1_H5.1_A5.1_[T5G]_[A7C]_F5.1_[T8G]_T5.1 (ssRNA)
RNA: B1 RNA with G33A
B15: Ic_S4_P5E.1_K5.1_C5.1_H5.1_A5.1_[T5C]_[T6G]_[A7T]_F5.1_[T8A]_[T9A]_[A10T]_T5.1 (ssRNA)
RNA: B1 RNA with G28C, U29G, C30U, G31A, U32A, G33U
B16: Ic_S4_P5E.1_K5.1_C5.1_H5.1_A5.1_[T5A]_[T6A]_[A7T]_F5.1_[T8A]_[T9A]_[A10C]_T5.1 (ssRNA)
RNA: B1 RNA with G28A, U29A, C30U, G31A, U32A, G33C
B17: Ic_S4_P5E.1_K5.1_C5.1_H5.1_A5.1_[T5A]_[T6C]_[A7T]_F5.1_[T8G]_[T9C]_[A10T]_T5.1 (ssRNA)
RNA: B1 RNA with G28A, U29C, C30U, U32C, G33U
B18: Ic_S4_P5E.1_K5.1_C5.1_H5.1_A5.1_[T6G]_[A7C]_F5.1_[T8A]_T5.1 (ssRNA)
RNA: B1 RNA with G28U, U29G, G31A, G33A
B19: Ic_S4_P5E.1_K5.1_C5.1_H5.1_A5.1_[A7T]_F5.1_[T8G]_[T9C]_[A10G]_T5.1 (ssRNA)
RNA: B1 RNA with G28U, C30U, U32C
B20: Ic_S4_P5E.1_K5.1_C5.1_H5.1_A5.1_[T5C]_[A7T]_F5.1_[T8C]_[T9A]_[A10T]_T5.1 (ssRNA)
RNA: B1 RNA with G28C, C30U, G31C, U32A, G33U
B21: Ic_S4_P5E.1_K5.1_C5.1_H5.1_A5.1_[T5G]_[A7T]_F5.1_[T8A]_[A10T]_T5.1 (ssRNA)
RNA: B1 RNA with C30U, G31A, G33U
B22: Ic_S4_P5E.1_K5.1_C5.1_H5.1_A5.1_[T5A]_[T6C]_[A7T]_F5.1_[T8C]_[T9C]_[A10G]_T5.1 (ssRNA)
RNA: B1 RNA with G28A, U29C, C30U, G31C, U32C
B23: Ic_S4_P5E.1_K5.1_C5.1_H5.1_A5.1_[T5A]_F5.1_[T8A]_[A10T]_T5.1 (ssRNA)
RNA: B1 RNA with G28A, C30A, G31A, G33U
B24: Ic_S4_P5E.1_K5.1_C5.1_H5.1_A5.1_[T5C]_[T6C]_[A7C]_F5.1_[T8G]_[T9C]_[A10G]_T5.1 (ssRNA)
RNA: B1 RNA with G28C, U29C, U32C
B25: Ic_S4_P5E.1_K5.1_C5.1_H5.1_A5.1_[T5A]_[T6A]_[A7T]_F5.1_[A10T]_T5.1 (ssRNA)
RNA: B1 RNA with G28A, U29A, C30U, G31U, G33U
B26: Ic_S4_P5E.1_K5.1_C5.1_H5.1_A5.1_[T6A]_[A7T]_F5.1_[T8A]_[T9A]_T5.1 (ssRNA)
RNA: B1 RNA with G28U, U29A, C30U, G31A, U32A, G33A
B27: Ic_S4_P5E.1_K5.1_C5.1_H5.1_A5.1_[T5C]_[T6G]_[A7T]_F5.1_[T9A]_T5.1 (ssRNA)
RNA: B1 RNA with G28C, U29G, C30U, G31U, U32A, G33A
B28: Ic_S4_P5E.1_K5.1_C5.1_H5.1_A5.1_[T5C]_[T6G]_[A7T]_F5.1_[T8C]_[T9A]_[A10T]_T5.1 (ssRNA)
RNA: B1 RNA with G28C, U29G, C30U, G31C, U32A, G33U

Each binder was assayed against T1, PUF4 RNA-binding domain (assay: Mg; RNA-MaP; 20 mM Na-HEPES pH 7.4, 30 mM KOAc, 0.75 mM MgCl2, 0.1% Tween-20, 5% glycerol, 0.1 mg/mL BSA, 2 mM DTT; 25 C; 0.0125-409.6 nM protein). Details: tags: N-His6-TEV cleaved; C-SNAP kept, Cy3B-labelled; label: tethered on chip by stalled RNA polymerase.

Binder	Kd [µM]
UCUCUUUGUAUCUUCUCUCUU (ssRNA) [Ib_S1_P4E.1_K4.1_C4.1_H4.1_A4.1_[A6C]_F4.1_[A9C]_T4.1]	0.0925
B1	0.486
B2	0.325
B3	0.0751
B4	0.0027
B5	0.452
B6	0.00241
B7	1.35
B8	> 2.3
B9	0.0124
B10	0.00626
B11	0.531
B12	0.586
B13	0.0155
B14	0.0263
B15	0.0676
B16	0.0266
B17	0.304
B18	0.0141
B19	0.196
B20	0.103
B21	0.0853
B22	> 2.3
B23	0.0952
B24	1.67
B25	0.0169
B26	0.00386
B27	0.00422
B28	0.0988
